Here are results for one protein from FireProtDB (doi:10.1021/bi034486i).

For this data set the following is noted: Homo sapiens; pH 7.82; 20 °C; GdnHCl; CD; sodium phosphate 50 mM; whole UniProt chain shown.

“And” between values parts separate entries of the source, which are not always exact repeats. Equal entries are not always repeated.

B1: Thioredoxin-like protein 4A wild type, P83876 (protein)
chain: MSYMLPHLHNGWQVDQAILSEEDRVVVIRFGHDWDPTCMKMDEVLYSIAEKVKNFAVIYLVDITEVPDFNKMYELYDPCTVMFFFRNKHIMIDLGTGNNNKINWAMEDKQEMVDIIETVYRGARKGRGLVVSPKDYSTKYRY
In the case of B1, the denaturant m value was 2.16 kcal/mol/M and 3.24 kcal/mol/M; the “denaturant midpoint (higher = more stable)” value is 3.39 M and 3.41 M; the unfolding free energy was 7.32 kcal/mol and 11.1 kcal/mol.
